Test results taken from US20170183403A1 (UNIVERSIT T Z RICH, published 2017).

Assays:
[1] = target: T1, Reference peptide no. 10; assay: peptide microarray (RepliTope)
T1 construct: hIL-2 15-mer, first library, on microarray; also called peptide 10
T1 peptide: INNYKNPKLTRMLTF
Method: (§1) Additional incubations are with unrelated antibodies from the same isotype (mouse control IgG2a/lambda and mouse control IgG2a/kappa), and secondary antibodies (anti-mouse IgG (Thermo 84545, label DL650) or anti-mouse IgG (JIR 115-175-072, Label Cy5)) to assess unspecific binding due to the detection antibody. The experiments are performed essentially as described in Maksimov P, et al. 2012, PLoS One 7:e34212. doi:10.1371/journal. pone. 0034212.
(§2) The determination of peptide-antibody binding was performed by RepliTope-analysis where the peptide microarray (triplicate) was incubated with the primary antibody followed by a fluorescently labelled secondary antibody directed against the Fc-part of the primary one. All steps were performed on a TECAN microarray processing station enabling highly reliable and reproducible washing and incubation steps. After performing the incubation steps and subsequent to the final washing steps (to remove the unbound secondary antibodies) the microarrays were dried using a nitrogen stream and scanned in a high resolution microarray scanning system with appropriate wavelength settings. Control incubations were performed with an unrelated antibody having the same isotype to exclude false positive signals.
(§3) The resulting images were analyzed und quantified using spot-recognition software GenePix (Molecular Devices). For each spot, the mean signal intensity was extracted (between 0 and 65535 arbitrary units). For further data evaluation, the MMC2 values were determined. The MMC2 equals the mean value of all three instances on the microarray. Except the coefficient of variation (CV)—standard-deviation divided by the mean value—is larger 0.5, in this case the mean of the two closest values (MC2) is assigned to MMC2.

[2] = target: T2, Reference peptide no. 11; assay: peptide microarray (RepliTope)
T2 construct: hIL-2 15-mer, first library, on microarray; also called peptide 11
T2 peptide: YKNPKLTRMLTFKFY
Method: as §1, §2, §3

[3] = target: T3, Reference peptide no. 12; assay: peptide microarray (RepliTope)
T3 construct: hIL-2 15-mer, first library, on microarray; also called peptide 12
T3 peptide: PKLTRMLTFKFYMPK
Method: as §1, §2, §3

[4] = target: T4, Reference peptide no. 13; assay: peptide microarray (RepliTope)
T4 construct: hIL-2 15-mer, first library, on microarray; also called peptide 13
T4 peptide: TRMLTFKFYMPKKAT
Method: as §1, §2, §3

[5] = target: T5, Reference peptide no. 22; assay: peptide microarray (RepliTope)
T5 construct: hIL-2 15-mer, first library, on microarray; also called peptide 22
T5 peptide: KPLEEVLNLAQSKNF
Method: as §1, §2, §3

[6] = target: T6, Reference peptide no. 23; assay: peptide microarray (RepliTope)
T6 construct: hIL-2 15-mer, first library, on microarray; also called peptide 23
T6 peptide: EEVLNLAQSKNFHLR
Method: as §1, §2, §3

[7] = target: T7, Reference peptide no. 24; assay: peptide microarray (RepliTope)
T7 construct: hIL-2 15-mer, first library, on microarray; also called peptide 24
T7 peptide: LNLAQSKNFHLRPRD
Method: as §1, §2, §3

[8] = target: T8, Reference peptide no. 25; assay: peptide microarray (RepliTope)
T8 construct: hIL-2 15-mer, first library, on microarray; also called peptide 25
T8 peptide: AQSKNFHLRPRDLIS
Method: as §1, §2, §3

[9] = target: T9, Reference peptide no. 26; assay: peptide microarray (RepliTope)
T9 construct: hIL-2 15-mer, first library, on microarray; also called peptide 26
T9 peptide: KNFHLRPRDLISNIN
Method: as §1, §2, §3

[10] = target: T10, Reference peptide no. 5; assay: peptide microarray (RepliTope), 15-mers
T10 construct: hIL-2 15-mer, first library, on microarray; also called peptide 5
T10 peptide: QLEHLLLDLQMILNG
Method: as §1, §2, §3

[11] = target: T11, Reference peptide no. 17; assay: peptide microarray (RepliTope), 15-mers
T11 construct: hIL-2 15-mer, first library, parental Cys replaced by Ser, on microarray; also called peptide 17
T11 peptide: KATELKHLQSLEEEL
Method: as §1, §2, §3

[12] = target: T12, Reference peptide no. 34; assay: peptide microarray (RepliTope), 15-mers
T12 construct: hIL-2 15-mer, first library, parental Cys replaced by Ser, on microarray; also called peptide 34
T12 peptide: ETTFMSEYADETATI
Method: as §1, §2, §3

[13] = target: T13, Reference peptide no. 37; assay: peptide microarray (RepliTope), 15-mers
T13 construct: hIL-2 15-mer, first library, on microarray; also called peptide 37
T13 peptide: DETATIVEFLNRWIT
Method: as §1, §2, §3

[14] = target: T14, Reference peptide no. 38; assay: peptide microarray (RepliTope), 15-mers
T14 construct: hIL-2 15-mer, first library, parental Cys replaced by Ser, on microarray; also called peptide 38
T14 peptide: ATIVEFLNRWITFSQ
Method: as §1, §2, §3

[15] = target: T15, Reference peptide no. 45; assay: peptide microarray (RepliTope), 15-mers
T15 construct: second library: peptide 13 with F(62) to Ala; also called peptide 45
T15 peptide: TRMLTAKFYMPKKAT
Method: as §1, §2, §3

[16] = target: T16, Reference peptide no. 56; assay: peptide microarray (RepliTope), 15-mers
T16 construct: second library: peptide 20 with L(92) to Ala; parental Cys replaced by Ser; also called peptide 56
T16 peptide: SLEEELKPLEEVLNA
Method: as §1, §2, §3

[17] = target: T1, Reference peptide no. 10; assay: peptide microarray (RepliTope), Ala mutagenesis set
[18] = target: T17, Reference peptide no. 49; assay: as above
T17 construct: second library: peptide 13 with Y(65) to Ala; also called peptide 49
T17 peptide: TRMLTFKFAMPKKAT

[19] = target: T18, human interleukin-2 (human, UniProt P60568 21-153); assay: SPR, antibody amine-coupled on GLM chip, hIL-2 in solution
T18 construct: also called hIL-2; human IL-2
T18 sequence (P60568 21-153 limits assumed): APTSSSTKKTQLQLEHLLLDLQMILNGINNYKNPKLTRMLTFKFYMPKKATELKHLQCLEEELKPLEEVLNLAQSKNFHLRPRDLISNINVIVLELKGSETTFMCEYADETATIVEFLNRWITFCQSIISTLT
Method: For this experiment an amine coupling GLM chip was used. The activation of the carboxylic acid groups in the chip was done using a mix of 1-ethyl-3-3-dimethylaminopropyl carbodiimide hydrochlorid (EDC at 0.2 M) and sulfo N-hydroxysulfosuccinimids (s_NHS at 0.05M) at […] for 420 seconds (s). […] Deactivation was followed adding ethanolamine HCl at […] for 300 s. Finally human IL-2 was added at different concentrations (starting from 100 nM and followed by three-fold dilutions) at […], 600 s association, and 240 s dissociation.
In order to characterize the binding properties of the anti-human IL-2 mAbs the binding to human interleukin-2 was tested with surface plasmon resonance binding assays.

[20] = target: T19, murine IL-2 (mouse, UniProt P04351 21-169); assay: SPR, NARA1 amine-coupled to a GLM chip, mouse IL-2 as analyte at 10, 3.3, 1.1, 0.37, 0.123 and 0.041 nM
T19 construct: also called mouse IL-2; mIL-2
T19 sequence (looked up): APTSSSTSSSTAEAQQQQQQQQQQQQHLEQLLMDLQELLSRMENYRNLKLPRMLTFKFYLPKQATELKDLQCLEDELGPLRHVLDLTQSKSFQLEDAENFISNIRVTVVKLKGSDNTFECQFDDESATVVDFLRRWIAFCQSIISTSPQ

signal intensity after subtraction of control signal [1]: 20900 AU | signal intensity after subtraction of control signal [2]: 1190 AU | signal intensity after subtraction of control signal [3]: 1130 AU | signal intensity after subtraction of control signal [4]: 224 AU | signal intensity after subtraction of control signal [5]: 0 AU | signal intensity after subtraction of control signal [6]: 32 AU | signal intensity after subtraction of control signal [7]: 282 AU | signal intensity after subtraction of control signal [8]: 0 AU | signal intensity after subtraction of control signal [9]: 0 AU | binding result [10]: no binding | binding result [11]: no binding | binding result [12]: no binding | binding result [13]: no binding | binding result [14]: no binding | binding result [15]: no binding | binding result [16]: no binding | Kd [19]: 1.2 nM | koff [19]: 2.08e-05 s⁻¹ | binding result [20]: no binding (tested: 10 nM)
B1: NARA1 (antibody, mouse IgG2a, kappa, V domains shown)
VH: QVQLQQSGAELVRPGTSVKVSCKASGYAFTNYLIEWVKQRPGQGLEWIGVINPGSGGTNYNEKFKGKATLTADKSSSTAYMQLSSLTSDDSAVYFCARWRGDGYYAYFDVWGAGTTVTVSS
VL: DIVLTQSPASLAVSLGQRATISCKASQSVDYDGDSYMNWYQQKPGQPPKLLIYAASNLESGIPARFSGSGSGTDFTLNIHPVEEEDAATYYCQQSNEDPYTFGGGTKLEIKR
notes: Mouse monoclonal from hybridoma; Isotype controls used were mouse IgG2a; also called anti-IL2 (NARA1) antibody; monoclonal antibody NARA1
signal intensity after subtraction of control signal [17]: 20900 AU | signal intensity after subtraction of control signal [18]: 1490 AU
